{
  "source": "patent US11697680B2",
  "about": "“Anti-GP73 antibodies and immunoconjugates” (CUREAB GMBH, priority 2016, dated 2023)",
  "key": {"peptide AA 36-55 of GP73": {"target": "peptide AA 36-55 of GP73 (Homo sapiens, UniProt Q8NBJ4)", "experiment": "Competition peptide ELISA with HRP-labeled antibodies", "assay_type": "binding", "details": "unlabeled competing antibody at high concentration; binding antibody G2-1-HRP", "description": "A peptide ELISA was performed using horse radish peroxidase labeled G2-1 (G2-1-HRP) or G2-2 (G2-2-HRP) as binding antibodies and G2-1 or G2-2 as competing antibodies. […] Binding to peptide AA 36-55 of GP73 served as positive control (filled circle), negative control was binding to an unrelated peptide (filled diamond) as described in Example 5.\nELISA was carried out in 96 well plates coated overnight with biotinylated peptide and blocked with 2% gelatine. Horse radish peroxidase labeled antibodies G2-1 (G2-1-HRP) or G2-2 (G2-2-HRP) were applied and incubated for 1.5 hours. For competition testing non labeled G2-1 or G2-2 was added at high concentration. For pH dependent binding the antibodies were applied in phosphate buffer pH 4.4, 5.4, 6.4 or 7.4. After extensive washing a chromogenic substrate (TMB Amersham) was added to detect peroxidase. The reaction was stopped and absorbance was read at 450 nm."}, "[1]": {"target": "T1, Furin cleavage of recombinant GP73-HIS (Homo sapiens, UniProt Q8NBJ4)", "T1 construct": "purchased Biolegend", "T1 sequence (Q8NBJ4 36-401 limits assumed)": "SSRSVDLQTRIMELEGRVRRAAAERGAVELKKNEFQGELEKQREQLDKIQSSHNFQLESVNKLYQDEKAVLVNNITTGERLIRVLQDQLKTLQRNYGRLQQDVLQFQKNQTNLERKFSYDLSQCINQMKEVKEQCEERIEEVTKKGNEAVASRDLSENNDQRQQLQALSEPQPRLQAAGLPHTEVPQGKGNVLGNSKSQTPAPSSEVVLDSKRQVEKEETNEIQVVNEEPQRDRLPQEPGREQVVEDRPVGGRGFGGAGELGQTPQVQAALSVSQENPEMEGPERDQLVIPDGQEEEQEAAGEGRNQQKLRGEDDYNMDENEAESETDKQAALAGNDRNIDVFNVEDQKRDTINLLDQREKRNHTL", "experiment": "Furin cleavage of GP73-HIS depending on antibody binding (capture ELISA)", "assay_type": "biochemical", "details": "3 U and 1.5 U of Furin; 2 hours at 30° C.", "source_text": "Measurements of Furin cleavage of GP73 using a range from 0 units to 3 units of Furin are depicted.\nTesting of Furin cleavage exploits the fact that antibodies G2-1 and G2-2 bind GP73 N-terminal of or at the furin cleavage site 56R whereas recombinant GP73 with C-terminal HIS tag (GP73-HIS) is detected by anti HIS antibody at the C-terminus of GP73. Plate bound anti human IgG can capture G2-1 or G2-2, which binds GP73-HIS. If furin cleavage occurs in a setting where G2-1 or G2-2 have already bound to GP73-HIS, only N-terminal part of GP73 will reside at the G2 antibodies. In contrast, if furin cleavage is hindered by G2 antibodies, GP73-HIS can be detected by an anti HIS antibody.\nFurin cleavage was carried out in 1.5 ml tubes. To test if G2 antibodies can hinder furin cleavage recombinant GOLPH-HIS protein (Biolegend) and G2-2 or G2-1 was incubated for 2 hours in 100 mM HEPES and 1 mM CaCl2 buffer pH 7.5 to allow antibody binding to GP73. […]\nFrom each reaction 2×100 ul were transferred to wells of a 96 well plate that had been coated over night with anti human IgG and was blocked with 1% gelatine in PBS. After one hour incubation at room temperature the plate was washed, incubated with anti HIS-hrp antibody for one hour, washed again, incubated with a chromogenic substrate (TMB Amersham) to detect peroxidase, stopped and read at 450 nm."}, "[2]": {"system": "HuH7 (human hepatocellular carcinoma)", "experiment": "Cell viability / proliferation with PrestoBlue reagent", "assay_type": "cell-based", "details": "0.125 mg/ml to 2 mg/ml, after 72 hrs", "description": "FIG. 13A Proliferation of HuH7 cells (human hepatocellular carcinoma) after treatment with different antibodies. HuH7 cells were treated with G2-2, G2-2 plus Cetuximab, mG2-2, mG2-2 plus Cetuximab, Cetuximab or control antibody each in increasing concentrations from 0.125 mg/ml to 2 mg/ml. Proliferating cells were measured after 72 hrs. […] This effect was independent of the Fc part i.e. human IgG1 in G2-2 or murin IgG2a in mG2-2 as described in Example 8.\nFIG. 13B Proliferation of HuH7 cells (human hepatocellular carcinoma), 4T1 cells (murin breast carcinoma) and CaCo2 cells (human colorectal carcinoma) after treatment with different antibodies. The three cell lines were treated with G2-1, G2-1 plus Cetuximab, Cetuximab, Bevacizumab or Bevacizumab plus Cetuximab 2 mg/ml total. Proliferating cells were measured after 72 hrs.\nCells from the cell lines HuH7 (human hepatocellular carcinoma), 4T1 (murin breast carcinoma) and CaCo2 (human colorectal carcinoma) were cultured under standard conditions in Dulbecco's modified Eagle Medium (DMEM) supplemented with 10% fetal calf serum (FCS) at 37° C. with 5% CO2. […] Fluorescence was read at 615 nm to quantify cell viability. […]\nTo test the effect of G2-1 on different cell lines, HuH7, 4T1 and CaCo2 cells were transferred to 96 well plates. […] Cell viability was quantified after 72 hours using PrestoBlue reagent and measuring the fluorescence at 615 nm."}},
  "data": [
    {"molecule": "G2-2: scFv clone with human IgG1 heavy and human Igk light constant regions; VH/VL SEQ ID NO: 2 and 3; binds rGP73 AA 36-55 (antibody, V domains shown, human IgG1 and Igk constant regions not cited; G2-2 heavy chain variable region (VH); G2-2 light chain variable region (VL)) VH: EVQLLQSGGGVVQPGRSLRLSCAASGFTFSSYGMSWVRQAPGKGLEWVAVISYDGSNKYYADSVKGRFTISRDNSKNTLYLQMNSLRAEDTAVYYCAREGSAGMDVWGQGTTVTVSS VL: DIQMTQPSSLSASPGASASLTCTLRSDISVGFHRIYWYQQKPGSPPQYLLRYKSDSDKQQGSGVPSRFSGSKDASANAGILLISGLQSDDEADYYCVIWHTSGVVFGGGTKVEIK", "values": [
      {"measurement": "competition with G2-1-HRP for peptide binding", "setting": "peptide AA 36-55 of GP73", "result": "Competitive inhibition"},
      {"measurement": "Furin cleavage of GP73 after preincubation with antibody", "setting": "[1]", "result": "significant reduction in Furin cleavage"},
      {"measurement": "cell proliferation / cell viability", "setting": "[2]", "result": "reduced depending on antibody concentration"}
    ]}
  ]
}
